In patent US12339286B2, “Metal-reducing enzymatic tag for optical and electron microscopy” (Colorado State University Research Foundation, priority 2018, dated 2025):
Several values for one entry are separate records, joined by “and”; a condition that tells them apart may be missing. Equal values may be shown once. Ends that are not written are not given here.

Assays:
[1] = target: Pseudomonas moraviensis stanleyea GRLMR (glutathione reductase-like metalloid reductase), without SeBP (Pseudomonas moraviensis, UniProt A0A2A2PF31); assay: KM and kcat study: NADPH consumption at 340 nm, V0 vs substrate concentration; assay type: biochemical; conditions: substrate HNaSeO3; PBS, pH 7.4; 13 μg of enzyme; 200 μM NADPH; 0.05 mM-2 mM substrate
From the text: (§1) Because of the dramatic difference in SeBP size, morphology and aggregation state that depends on SeBP concatenation to GRLMR, whether this concatenation also alters the kinetic properties of the enzyme was investigated. To explore this possibility, NADPH concentrations were monitored spectroscopically during GRLMR enzymatic reactions to establish fundamental enzymatic kinetics in the presence and absence of the peptide. FIG. 4 depicts the plots of V0s attained by the GRLMR with and without SeBP over a range of substrate concentrations.
(§2) Initial velocities (V0) of the GRLMR-SeBP were performed in various concentrations of HNaSeO3 or GSSG while monitoring 340 nm correlating to NADPH absorbance. The reactions were run in PBS, pH 7.4 and with 13 μg of enzyme with substrate SeO3^2− (1.5 μg of enzyme with substrate GSSG) and 200 μM of NADPH with 0.05 mM-2 mM of substrate. Enzymatic V0s were plotted against substrate concentration in OriginPro from which KM and kcat could then be calculated.

[2] = target: T1, Pseudomonas moraviensis stanleyea GRLMR-SeBP (glutathione reductase-like metalloid reductase, GRLMR, with the selenium nanoparticle binding peptide SeBP/SeBP1, (Pseudomonas moraviensis, UniProt A0A2A2PF31, INS452LTPHKHHKHLHA)); assay: as above; assay type: biochemical; conditions: substrate HNaSeO3; PBS, pH 7.4; 13 μg of enzyme; 200 μM NADPH; 0.05 mM-2 mM substrate
T1 sequence (A0A2A2PF31 1-452 INS452LTPHKHHKHLHA): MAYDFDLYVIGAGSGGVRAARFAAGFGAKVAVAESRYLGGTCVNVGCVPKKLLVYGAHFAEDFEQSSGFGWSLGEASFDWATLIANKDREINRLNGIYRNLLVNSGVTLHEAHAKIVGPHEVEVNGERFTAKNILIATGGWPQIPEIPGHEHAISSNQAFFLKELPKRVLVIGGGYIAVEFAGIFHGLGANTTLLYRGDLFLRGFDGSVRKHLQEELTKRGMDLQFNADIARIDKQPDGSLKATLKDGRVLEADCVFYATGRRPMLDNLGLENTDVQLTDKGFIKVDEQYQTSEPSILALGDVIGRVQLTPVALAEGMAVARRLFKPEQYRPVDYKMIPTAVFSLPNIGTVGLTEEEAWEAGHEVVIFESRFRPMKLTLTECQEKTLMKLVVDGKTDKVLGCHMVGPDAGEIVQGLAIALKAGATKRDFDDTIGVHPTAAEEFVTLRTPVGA
From the text: as §1, §2

[3] = target: glutathione reductase-like metalloid reductase (GRLMR) (Pseudomonas moraviensis stanleyae); assay: negative binding assay: phage (input 10^10 pfu) on wells coated with unreacted GRLMR, acid-eluted phage titered on E. coli

`O=[Se]([O-])O.[Na+]` [HNaSeO3] was tested, and the Km [1] was 1920 ± 1280 µM, the kcat [1] was 0.38038 ± 0.1473 s⁻¹ and 0.38038 s⁻¹ and the Km [2] was 217 ± 57 µM. The kcat [2] was 0.67193 ± 0.04143 s⁻¹ and 0.67193 s⁻¹.

“Wild Type M13 phage (no inserted sequence) (from UniProt P69168 19-424)” gave an eluted phage titer (pfu) [3] of 150000 pfu.

B1: SeBP2 (…) displayed on M13 phage (peptide, not shown: large carriers)
peptide: GPHHMHHHRTHH-{M13 pIII}
modifications: also: displayed on M13 phage pIII, linker not given here
B1 showed an eluted phage titer (pfu) [3] of 2.1e+09 pfu.

B2: SeBP4 (…) displayed on M13 phage (peptide, not shown: large carriers)
peptide: GWHSPHAHWRVK-{M13 pIII}
modifications: also: displayed on M13 phage pIII, linker not given here
Molecule B2 has an eluted phage titer (pfu) [3] of 330000 pfu.

B3: SeBP5 (…) displayed on M13 phage (peptide, not shown: large carriers)
peptide: THYNPLRINPIT-{M13 pIII}
modifications: also: displayed on M13 phage pIII, linker not given here
Molecule B3 has an eluted phage titer (pfu) [3] of 680000 pfu.

B4: SeBP3 (…) displayed on M13 phage (peptide, not shown: large carriers)
peptide: WPRHHWHTNYMR-{M13 pIII}
modifications: also: displayed on M13 phage pIII, linker not given here
B4 gave an eluted phage titer (pfu) [3] of 3.9e+08 pfu.
